Results published in the supplement of paper PMC11246515.
± gives the standard deviation of the averaged measurements.

Assay: total protein half-life in vivo (active degradation + dilution); higher = more stable protein
[1] = E. coli NCM3722 delta-clpP delta-lon delta-hslV, growth: N-lim chemostat, doubling time 6 h
[2] = E. coli NCM3722 delta-clpP, growth: N-lim chemostat, doubling time 6 h
[3] = E. coli NCM3722 delta-hslV, growth: N-lim chemostat, doubling time 6 h
[4] = E. coli NCM3722 delta-lon, growth: N-lim chemostat, doubling time 6 h
[5] = E. coli NCM3722 delta-smpB, growth: N-lim chemostat, doubling time 6 h
[6] = wild type E. coli NCM3722, growth: C-lim chemostat, doubling time 3 h
[7] = wild type E. coli NCM3722, growth: C-lim chemostat, doubling time 6 h
[8] = wild type E. coli NCM3722, growth: C-lim chemostat, doubling time 12 h
[9] = wild type E. coli NCM3722, growth: N-lim chemostat, doubling time 6 h
[10] = wild type E. coli NCM3722, growth: N-lim chemostat, doubling time 12 h
[11] = wild type E. coli NCM3722, growth: P-lim chemostat, doubling time 6 h
[12] = wild type E. coli NCM3722, growth: P-lim chemostat, doubling time 12 h

Row | Sequence | total protein half-life in vivo [1] [h] | total protein half-life in vivo [2] [h] | total protein half-life in vivo [3] [h] | total protein half-life in vivo [4] [h] | total protein half-life in vivo [5] [h] | total protein half-life in vivo [6] [h] | total protein half-life in vivo [7] [h] | total protein half-life in vivo [8] [h] | total protein half-life in vivo [9] [h] | total protein half-life in vivo [10] [h] | total protein half-life in vivo [11] [h] | total protein half-life in vivo [12] [h]
1 | MRLEVFCEDRLGLTRELLDLLVLRGIDLRGIEIDPIGRIYLNFAELEFESFSSLMAEIRRIAGVTDVRTVPWMPSEREHLALSALLEALPEPVLSVDMKSKVDMANPASCQLFGQKLDRLRNHTAAQLINGFNFLRWLESEPQDSHNEHVVINGQNFLMEITPVYLQDENDQHVLTGAVVMLRSTIRMGRQLQNVAAQDVSAFSQIVAVSPKMKHVVEQAQKLAMLSAPLLITGDTGTGKDLFAYACHQASPRAGKPYLALNCASIPEDAVESELFGHAPEGKKGFFEQANGGSVLLDEIGEMSPRMQAKLLRFLNDGTFRRVGEDHEVHVDVRVICATQKNLVELVQKGMFREDLYYRLNVLTLNLPPLRDCPQDIMPLTELFVARFADEQGVPRPKLAADLNTVLTRYAWPGNVRQLKNAIYRALTQLDGYELRPQDILLPDYDAATVAVGEDAMEGSLDEITSRFERSVLTQLYRNYPSTRKLAKRLGVSHTAIANKLREYGLSQKKNEE | 6.71 ± 0.79 | 4.83 ± 0.089 | 4.73 ± 0.23 | 6.13 ± 0.71 | 4.6 ± 0.14 | 2.69 ± 0.14 | 5.844 ± 0.052 | 8.21 ± 0.57 | 4.51 ± 0.34 | 8.243 ± 0.066 | 4.84 ± 0.092 | 9.34 ± 0.13
2 | MRLLHTMLRVGDLQRSIDFYTKVLGMKLLRTSENPEYKYSLAFVGYGPETEEAVIELTYNWGVDKYELGTAYGHIALSVDNAAEACEKIRQNGGNVTREAGPVKGGTTVIAFVEDPDGYKIELIEEKDAGRGLGN [P0AC81] | 5.13 ± 0.38 | 4.5 ± 0.53 | 4.72 ± 0.37 | 5 ± 0.3 | 4.3 ± 0.39 | 3.48 ± 0.63 | 5.44 ± 0.1 | 8.9 ± 0.29 | 4.38 ± 0.4 | 8.01 ± 1 | 5.41 ± 0.27 | 11.6 ± 0.91
3 | MRLPIFLDTDPGIDDAVAIAAAIFAPELDLQLMTTVAGNVSVEKTTRNALQLLHFWNAEIPLAQGAAVPLVRAPRDAASVHGESGMAGYDFVEHNRKPLGIPAFLAIRDALMRAPEPVTLVAIGPLTNIALLLSQCPECKPYIRRLVIMGGSAGRGNCTPNAEFNIAADPEAAACVFRSGIEIVMCGLDVTNQAILTPDYLSTLPQLNRTGKMLHALFSHYRSGSMQSGLRMHDLCAIAWLVRPDLFTLKPCFVAVETQGEFTSGTTVVDIDGCLGKPANVQVALDLDVKGFQQWVAEVLALAS | 4.86 ± 1.4 | 4.75 | – | 4.13 | 3.64 | 2.8 ± 0.15 | 5.62 ± 0.1 | 9.27 ± 3.1 | 3.89 | 11.1 | – | 8.95 ± 3.1
4 | MRLTTKFSAFVTLLTGLTIFVTLLGCSLSFYNAIQYKFSHRVQAVATAIDTHLVSNDFSVLRPQITELMMSADIVRVDLLHGDKQVYTLARNGSYRPVGSSDLFRELSVPLIKHPGMSLRLVYQDPMGNYFHSLMTTAPLTGAIGFIIVMLFLAVRWLQRQLAGQELLETRATRILNGERGSNVLGTIYEWPPRTSSALDTLLREIQNAREQHSRLDTLIRSYAAQDVKTGLNNRLFFDNQLATLLEDQEKVGTHGIVMMIRLPDFNMLSDTWGHSQVEEQFFTLTNLLSTFMMRYPGALLARYHRSDFAALLPHRTLKEAESIAGQLIKAVDTLPNNKMLDRDDMIHIGICAWRSGQDTEQVMEHAESATRNAGLQGGNSWAIYDDSLPEKGRGNVRWRTLIEQMLSRGGPRLYQKPAVTREGQVHHRELMCRIFDGNEEVSSAEYMPMVLQFGLSEEYDRLQISRLIPLLRYWPEENLAIQVTVESLIRPRFQRWLRDTLMQCEKSQRKRIIIELAEADVGQHISRLQPVIRLVNALGVRVAVNQAGLTLVSTSWIKELNVELLKLHPGLVRNIEKRTENQLLVQSLVEACSGTSTQVYATGVRSRSEWQTLIQRGVTGGQGDFFASSQPLDTNVKKYSQRYSV | 6 ± 1.2 | 6.52 ± 0.62 | 6.35 ± 0.42 | 5.67 ± 0.62 | 5.945 ± 0.0086 | 3.44 ± 0.17 | 6.042 ± 0.0062 | – | 6.45 ± 0.23 | 11.59 ± 0.06 | 5.52 ± 0.13 | 13 ± 0.43
5 | MRNFDLSPLMRQWIGFDKLANALQNAGESQSFPPYNIEKSDDNHYRITLALAGFRQEDLEIQLEGTRLSVKGTPEQPKEEKKWLHQGLMNQPFSLSFTLAENMEVSGATFVNGLLHIDLIRNEPEPIAAQRIAISERPALNS [P0C058] | 6.3 ± 0.16 | 2.21 ± 0.097 | – | – | 1.42 | 1.03 | – | 1.59 | 4.47 | 3.19 | – | –
6 | MRNFDLSPLYRSAIGFDRLFNHLENNQSQSNGGYPPYNVELVDENHYRIAIAVAGFAESELEITAQDNLLVVKGAHADEQKERTYLYQGIAERNFERKFQLAENIHVRGANLVNGLLYIDLERVIPEAKKPRRIEIN [P0C054] | – | 3.11 ± 0.15 | 1.47 ± 0.1 | 2.83 ± 0.24 | 1.35 ± 0.082 | 1.2 ± 0.21 | 1.83 ± 0.025 | 1.87 ± 0.3 | 1.65 ± 0.42 | 2.7 ± 0.45 | 1.58 ± 0.077 | 3.08 ± 0.14
7 | MRNHRISLQDIATLAGVTKMTVSRYIRSPKKVAKETGERIAKIMEEINYIPNRAPGMLLNAQSYTLGILIPSFQNQLFADILAGIESVTSEHNYQTLIANYNYDRDSEEESVINLLSYNIDGIILSEKYHTIRTVKFLRSATIPVVELMDVQGERLDMEVGFDNRQAAFDMVCTMLEKRVRHKILYLGSKDDTRDEQRYQGYCDAMMLHNLSPLRMNPRAISSIHLGMQLMRDALSANPDLDGVFCTNDDIAMGALLLCRERNLAVPEQISIAGFHGLEIGRQMIPSLASVITPRFDIGRMAAQMLLSKIKNNDHNHNTVDLGYQIYHGNTL | 6.39 ± 1.7 | – | – | – | – | 0.548 | – | 1.1 | – | – | – | –
